Test results reported in PMC5456370, “Bacterial co-expression of human Tau protein with protein kinase A and 14-3-3 for studies of 14-3-3/phospho-Tau interaction” (PLoS ONE, 2017).

Target: the molecule itself
Experiment: native gel or EMSA; purified 14-3-3 isoforms (14 μM per monomer) without or with PKA (2 μM) in 50 mM Hepes-NaOH pH 7.3, 10 mM NaCl, 4 mM MgCl2, 60 μM ATP, 2 h at 30°C; non-denaturing 15% gel, pH 8.6; dimer and monomer regions of the gel

Protein | binding result
untagged human 14-3-3σ devoid of the C-terminal flexible peptide (residues 232-248) (domain or fragment, UniProt P31947 1-231, looked up, human 14-3-3 protein sigma, Uniprot P31947, residues 1-231 out of 248; also called 14-3-3σΔC; σΔC; source: purified (ammonium sulfate fractionation, anion-exchange and gel-filtration chromatography); also E. coli BL21(DE3), co-expressed with Tau and PKA, in lysate) MERASLIQKAKLAEQAERYEDMAAFMKGAVEKGEELSCEERNLLSVAYKNVVGGQRAAWRVLSSIEQKSNEEGSEEKGPEVREYREKVETELQGVCDTVLGLLDSHLIKEAGDAESRVFYLKMKGDYYRYLAEVATGDDKKRIIDSARSAYQEAMDISKKEMPPTNPIRLGLALNFSVFHYEIANSPEEAISLAKTTFDEAMADLHTLSEDSYKDSTLIMQLLRDNLTLWT | binds
full-length human 14-3-3γ (natural protein, UniProt P61981 1-247, looked up, human 14-3-3 protein gamma, Uniprot P61981, full length) MVDREQLVQKARLAEQAERYDDMAAAMKNVTELNEPLSNEERNLLSVAYKNVVGARRSSWRVISSIEQKTSADGNEKKIEMVRAYREKIEKELEAVCQDVLSLLDNYLIKNCSETQYESKVFYLKMKGDYYRYLAEVATGEKRATVVESSEKAYSEAHEISKEHMQPTHPIRLGLALNYSVFYYEIQNAPEQACHLAKTAFDDAIAELDTLNEDSYKDSTLIMQLLRDNLTLWTSDQQDDDGGEGNN | binds
